This note sets out measurements from publication PMC4359615 (Journal of Structural Biology, 2015).

Sequences and labels used below:
B1: A135 subunit of RNA polymerase I (natural protein, S. cerevisiae)
chain: MSKVIKPPGQARTADFRTLERESRFINPPKDKSAFPLLQEAVQPHIGSFNALTEGPDGGLLNLGVKDIGEKVIFDGKPLNSEDEISNSGYLGNKLSVSVEQVSIAKPMSNDGVSSAVERKVYPSESRQRLTSYRGKLLLKLKWSVNNGEENLFEVRDCGGLPVMLQSNRCHLNKMSPYELVQHKEESDEIGGYFIVNGIEKLIRMLIVQRRNHPMAIIRPSFANRGASYSHYGIQIRSVRPDQTSQTNVLHYLNDGQVTFRFSWRKNEYLVPVVMILKALCHTSDREIFDGIIGNDVKDSFLTDRLELLLRGFKKRYPHLQNRTQVLQYLGDKFRVVFQASPDQSDLEVGQEVLDRIVLVHLGKDGSQDKFRMLLFMIRKLYSLVAGECSPDNPDATQHQEVLLGGFLYGMILKEKIDEYLQNIIAQVRMDINRGMAINFKDKRYMSRVLMRVNENIGSKMQYFLSTGNLVSQSGLDLQQVSGYTVVAEKINFYRFISHFRMVHRGSFFAQLKTTTVRKLLPESWGFLCPVHTPDGSPCGLLNHFAHKCRISTQQSDVSRIPSILYSLGVAPASHTFAAGPSLCCVQIDGKIIGWVSHEQGKIIADTLRYWKVEGKTPGLPIDLEIGYVPPSTRGQYPGLYLFGGHSRMLRPVRYLPLDKEDIVGPFEQVYMNIAVTPQEIQNNVHTHVEFTPTNILSILANLTPFSDFNQSPRNMYQCQMGKQTMGTPGVALCHRSDNKLYRLQTGQTPIVKANLYDDYGMDNFPNGFNAVVAVISYTGYDMDDAMIINKSADERGFGYGTMYKTEKVDLALNRNRGDPITQHFGFGNDEWPKEWLEKLDEDGLPYIGTYVEEGDPICAYFDDTLNKTKIKTYHSSEPAYIEEVNLIGDESNKFQELQTVSIKYRIRRTPQIGDKFSSRHGQKGVCSRKWPTIDMPFSETGIQPDIIINPHAFPSRMTIGMFVESLAGKAGALHGIAQDSTPWIFNEDDTPADYFGEQLAKAGYNYHGNEPMYSGATGEELRADIYVGVVYYQRLRHMVNDKFQVRSTGPVNSLTMQPVKGRKRHGGIRVGEMERDALIGHGTSFLLQDRLLNSSDYTQASVCRECGSILTTQQSVPRIGSISTVCCRRCSMRFEDAKKLLTKSEDGEKIFIDDSQIWEDGQGNKFVGGNETTTVAIPFVLKYLDSELSAMGIRLRYNVEPK
B2: A49 subunit of RNA polymerase I (natural protein, S. cerevisiae)
chain: MSVKRSVSEIEIESVQDQPSVAVGSFFKGFRAPSDTTFDLYKKKKSEKDEFVLHGENERLEYEGYTDSSSQASNQYVVGLFNPEKKSIQLYKAPVLVSKVVSKSSKNLRGPKIKSKSDTRPSALRNALGEAFGTKKAKKAIADLERNRIDSDKLTDSAIDIVDSVRTASKDLPTRAQLDEITSNDRPTPLANIDATDVEQIYPIESIIPKKELQFIRVSSILKEADKEKKLELFPYQNNSKYVAKKLDSLTQPSQMTKLQLLYYLSLLLGVYENRRVNNKTKLLERLNSPPEILVDGILSRFTVIKPGQFGRSKDRSYFIDPQNEDKILCYILAIIMHLDNFIVEITPLAHELNLKPSKVVSLFRVLGAIVKGATVAQAEAFGIPKSTAASYKIATMKVPFKLPEMTRRGRGPRR

Assay [1] addresses A190 subunit of RNA polymerase I (S. cerevisiae, UniProt P10964 1-1664). The assay can be described thus: cross-linking.
The target in assay [2] is B1. The experiment in a line: cross-linking.

Chain of A190 subunit of RNA polymerase I (P10964 whole entry): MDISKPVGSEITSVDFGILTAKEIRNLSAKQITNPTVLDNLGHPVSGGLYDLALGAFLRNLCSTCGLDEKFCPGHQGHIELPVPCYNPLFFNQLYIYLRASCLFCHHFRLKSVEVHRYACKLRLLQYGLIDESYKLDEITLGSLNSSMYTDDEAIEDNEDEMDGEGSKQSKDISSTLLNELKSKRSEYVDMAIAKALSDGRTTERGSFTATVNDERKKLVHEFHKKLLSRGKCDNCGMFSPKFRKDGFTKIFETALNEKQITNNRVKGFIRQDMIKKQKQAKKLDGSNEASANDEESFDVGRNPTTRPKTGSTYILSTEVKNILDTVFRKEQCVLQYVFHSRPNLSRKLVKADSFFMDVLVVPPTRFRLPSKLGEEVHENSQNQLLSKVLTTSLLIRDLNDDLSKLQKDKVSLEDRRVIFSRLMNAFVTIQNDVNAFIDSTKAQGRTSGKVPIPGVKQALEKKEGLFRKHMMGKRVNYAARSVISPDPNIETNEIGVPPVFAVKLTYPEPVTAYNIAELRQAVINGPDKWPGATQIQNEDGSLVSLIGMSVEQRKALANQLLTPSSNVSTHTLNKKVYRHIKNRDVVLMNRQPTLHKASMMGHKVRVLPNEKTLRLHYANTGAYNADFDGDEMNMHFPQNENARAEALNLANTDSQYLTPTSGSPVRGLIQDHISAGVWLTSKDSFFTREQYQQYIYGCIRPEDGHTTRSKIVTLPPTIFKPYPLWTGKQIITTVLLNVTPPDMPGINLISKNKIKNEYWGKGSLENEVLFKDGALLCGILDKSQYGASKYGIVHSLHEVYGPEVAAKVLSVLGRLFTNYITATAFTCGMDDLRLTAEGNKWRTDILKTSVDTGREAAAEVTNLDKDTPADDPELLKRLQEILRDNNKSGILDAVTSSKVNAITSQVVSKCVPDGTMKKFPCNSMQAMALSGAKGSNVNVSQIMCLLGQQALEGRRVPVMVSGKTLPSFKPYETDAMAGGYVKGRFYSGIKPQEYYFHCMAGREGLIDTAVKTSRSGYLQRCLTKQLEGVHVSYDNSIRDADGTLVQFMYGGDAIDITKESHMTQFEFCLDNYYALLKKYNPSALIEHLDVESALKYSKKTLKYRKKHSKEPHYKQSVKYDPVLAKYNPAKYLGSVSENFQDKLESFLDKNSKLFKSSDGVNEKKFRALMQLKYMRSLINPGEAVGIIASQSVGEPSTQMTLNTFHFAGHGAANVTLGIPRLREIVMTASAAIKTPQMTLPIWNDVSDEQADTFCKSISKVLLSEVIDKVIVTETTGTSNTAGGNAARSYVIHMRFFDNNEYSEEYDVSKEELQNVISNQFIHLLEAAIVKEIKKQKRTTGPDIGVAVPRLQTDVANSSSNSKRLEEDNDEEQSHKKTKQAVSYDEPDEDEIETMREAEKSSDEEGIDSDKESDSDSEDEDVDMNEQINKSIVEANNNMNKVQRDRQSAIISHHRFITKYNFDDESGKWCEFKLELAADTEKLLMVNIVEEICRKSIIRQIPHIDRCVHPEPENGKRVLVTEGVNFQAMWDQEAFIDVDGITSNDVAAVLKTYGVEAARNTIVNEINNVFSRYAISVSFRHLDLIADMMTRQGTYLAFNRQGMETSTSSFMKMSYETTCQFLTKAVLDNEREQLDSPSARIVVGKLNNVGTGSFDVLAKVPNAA

In the case of B1, the binding result in assay [1] is given as “binds”. Consider B2, for which the binding result in assay [2] and in assay [1] was “binds” throughout.
